# Laboratory results reported in article PMC4687643, “SH3 Domains Differentially Stimulate Distinct Dynamin I Assembly Modes and G Domain Activity” (PLoS ONE, 2015).
# T1: GST-Cdc42 interacting protein 4 (CIP4) SH3 domain (human, UniProt Q15642 540-601)
# T1 sequence (looked up): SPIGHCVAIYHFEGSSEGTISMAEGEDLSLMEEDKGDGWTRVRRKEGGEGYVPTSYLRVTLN
# T2: GST-Formin Binding Protein 17 (FBP17) SH3 domain (human, UniProt Q96RU3 550-611)
# T2 sequence (looked up): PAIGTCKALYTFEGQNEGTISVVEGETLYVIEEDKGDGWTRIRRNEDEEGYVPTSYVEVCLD
# T3: GST-amphiphysin II SH3 domain (human, UniProt O00499 520-593)
# T3 sequence (looked up): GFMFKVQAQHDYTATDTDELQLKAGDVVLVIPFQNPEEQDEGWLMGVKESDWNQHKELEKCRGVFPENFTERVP
# T4: GST-amphiphysin I SH3 domain (human, UniProt P49418 622-695)
# T4 sequence (looked up): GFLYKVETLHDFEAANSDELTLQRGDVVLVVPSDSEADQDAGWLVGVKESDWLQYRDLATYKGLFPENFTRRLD
# B1: endogenous sheep brain dynamin I (enzyme)
# chain: MGNRGMEDLIPLVNRLQDAFSAIGQNADLDLPQIAVVGGQSAGKSSVLENFVGRDFLPRGSGIVTRRPLVLQLVNATTEYAEFLHCKGKKFTDFEEVRLEIEAETDRVTGTNKGISPVPINLRVYSPHVLNLTLVDLPGMTKVPVGDQPPDIEFQIRDMLMQFVTKENCLILAVSPANSDLANSDALKVAKEVDPQGQRTIGVITKLDLMDEGTDARDVLENKLLPLRRGYIGVVNRSQKDIDGKKDITAALAAERKFFLSHPSYRHLADRMGTPYLQKVLNQQLTNHIRDTLPGLRNKLQSQLLSIEKEVEEYKNFRPDDPARKTKALLQMVQQFAVDFEKRIEGSGDQIDTYELSGGARINRIFHERFPFELVKMEFDEKELRREISYAIKNIHGIRTGLFTPDLAFEATVKKQVQKLKEPSIKCVDMVVSELTATIRKCSEKLQQYPRLREEMERIVTTHIREREGRTKEQVMLLIDIELAYMNTNHEDFIGFANAQQRSNQMNKKKASGNQDEILVIRKGWLTINNIGIMKGGSKEYWFVLTAENLSWYKDDEEKEKKYMLSVDNLKLRDVEKGFMSSKHIFALFNTEQRNVYKDYRQLELACETQEEVDSWKASFLRAGVYPERVGDKEKASETEENGSDSFMHSMDPQLERQVETIRNLVDSYMAIVNKTVRDLMPKTIMHLMINNTKEFIFSELLANLYSCGDQNTLMEESAEQAQRRDEMLRMYHALKEALSIIGDINTTTVSTPMPPPVDDSWLQVQSVPTGRRSPTSSPTPQRRAPAVPPARPGSRGPAPGPPPAGSALGGAPPVPSRPGASPDPFGPPPQVPSRPNRAPPGVPSRSGQASPSRPESPRPPFDL
# Experiments:
# Assay in all cases: cell-based or functional assay
# [1] = biological target: T1, GST-Cdc42 interacting protein 4 (CIP4) …
# [2] = biological target: T5, GST-endophilin I SH3 domain (mouse, UniProt Q62420 290-349)
# T5 sequence (Q62420 290-349): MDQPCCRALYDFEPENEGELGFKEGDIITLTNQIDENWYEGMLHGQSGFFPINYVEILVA
# GST-p85 SH3 domain [3] = biological target: T6, GST-p85 SH3 domain (bovine, UniProt P23727 3-79)
# [4] = biological target: T7, GST-sorting-nexin 9 (SNX9) SH3 domain (human, UniProt Q9Y5X1 1-62)
# T7 sequence (Q9Y5X1 1-62): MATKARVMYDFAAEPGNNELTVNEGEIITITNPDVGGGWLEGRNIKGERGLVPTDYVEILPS
# [5] = biological target: GST-intersectin I SH3E domain (Xenopus laevis)
# [6] = biological target: T8, GST-syndapin I SH3 domain (mouse, UniProt Q61644 382-441)
# T8 sequence (Q61644 382-441): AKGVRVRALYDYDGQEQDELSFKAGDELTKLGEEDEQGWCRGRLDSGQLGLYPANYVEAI
# [7] = biological target: T9, GST-Actin binding protein 1 (Abp1) SH3 domain (mouse, UniProt Q62418 377-436)
# T9 sequence (Q62418 377-436): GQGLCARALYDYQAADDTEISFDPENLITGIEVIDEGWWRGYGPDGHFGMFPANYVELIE
# [8] = biological target: GST-intersectin I SH3C domain (Xenopus laevis)
# [9] = biological target: T2, GST-Formin Binding Protein 17 (FBP17) …
# [10] = biological target: T3, GST-amphiphysin II SH3 domain
# GST-cortactin SH3 domain [11] = biological target: T10, GST-cortactin SH3 domain (mouse, UniProt Q60598 488-546)
# T10 sequence (Q60598 488-546): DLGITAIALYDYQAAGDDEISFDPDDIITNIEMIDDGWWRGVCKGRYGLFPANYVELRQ
# [12] = biological target: T4, GST-amphiphysin I SH3 domain
# [13] = biological target: GST-intersectin I SH3A domain (Xenopus laevis)
# [14] = biological target: T1, GST-Cdc42 interacting protein 4 (CIP4) …; remark: listed apart in the source
# [15] = biological target: T5, GST-endophilin I SH3 domain; remark: listed apart in the source
# GST-p85 SH3 domain [16] = biological target: T6, GST-p85 SH3 domain; remark: listed apart in the source
# [17] = biological target: T7, GST-sorting-nexin 9 (SNX9) SH3 domain; remark: listed apart in the source
# [18] = biological target: GST-intersectin I SH3E domain (Xenopus laevis); remark: listed apart in the source
# [19] = biological target: T8, GST-syndapin I SH3 domain; remark: listed apart in the source
# [20] = biological target: T9, GST-Actin binding protein 1 (Abp1) SH3 …; remark: listed apart in the source
# [21] = biological target: GST-intersectin I SH3C domain (Xenopus laevis); remark: listed apart in the source
# [22] = biological target: T2, GST-Formin Binding Protein 17 (FBP17) …; remark: listed apart in the source
# [23] = biological target: T3, GST-amphiphysin II SH3 domain; remark: listed apart in the source
# GST-cortactin SH3 domain [24] = biological target: T10, GST-cortactin SH3 domain; remark: listed apart in the source
# [25] = biological target: T4, GST-amphiphysin I SH3 domain; remark: listed apart in the source
# [26] = biological target: GST-intersectin I SH3A domain (Xenopus laevis); remark: listed apart in the source
binder,measurement,setting,value
B1,"rate of dynamin GTPase activity stimulated by the GST-SH3 domain (ELIPA, 30 mM NaCl, basal rate subtracted)",[1],0 μmoles Pi/mg of dyn/min
same,"rate of dynamin GTPase activity stimulated by the GST-SH3 domain (ELIPA, 30 mM NaCl, basal rate subtracted)",[2],0.012 μmoles Pi/mg of dyn/min
same,"rate of dynamin GTPase activity stimulated by the GST-SH3 domain (ELIPA, 30 mM NaCl, basal rate subtracted)",GST-p85 SH3 domain [3],0.009 μmoles Pi/mg of dyn/min
same,"rate of dynamin GTPase activity stimulated by the GST-SH3 domain (ELIPA, 30 mM NaCl, basal rate subtracted)",[4],0.027 μmoles Pi/mg of dyn/min
same,"rate of dynamin GTPase activity stimulated by the GST-SH3 domain (ELIPA, 30 mM NaCl, basal rate subtracted)",[5],0.005 μmoles Pi/mg of dyn/min
same,"rate of dynamin GTPase activity stimulated by the GST-SH3 domain (ELIPA, 30 mM NaCl, basal rate subtracted)",[6],0.033 μmoles Pi/mg of dyn/min
same,"rate of dynamin GTPase activity stimulated by the GST-SH3 domain (ELIPA, 30 mM NaCl, basal rate subtracted)",[7],0 μmoles Pi/mg of dyn/min
same,"rate of dynamin GTPase activity stimulated by the GST-SH3 domain (ELIPA, 30 mM NaCl, basal rate subtracted)",[8],0.008 μmoles Pi/mg of dyn/min
same,"rate of dynamin GTPase activity stimulated by the GST-SH3 domain (ELIPA, 30 mM NaCl, basal rate subtracted)",[9],0.016 μmoles Pi/mg of dyn/min
same,"rate of dynamin GTPase activity stimulated by the GST-SH3 domain (ELIPA, 30 mM NaCl, basal rate subtracted)",[10],0.001 μmoles Pi/mg of dyn/min
same,"rate of dynamin GTPase activity stimulated by the GST-SH3 domain (ELIPA, 30 mM NaCl, basal rate subtracted)",GST-cortactin SH3 domain [11],0.031 μmoles Pi/mg of dyn/min
same,"rate of dynamin GTPase activity stimulated by the GST-SH3 domain (ELIPA, 30 mM NaCl, basal rate subtracted)",[12],0.029 μmoles Pi/mg of dyn/min
same,"rate of dynamin GTPase activity stimulated by the GST-SH3 domain (ELIPA, 30 mM NaCl, basal rate subtracted)",[13],0.101 μmoles Pi/mg of dyn/min
same,"dynamin GTPase activity stimulated by the GST-SH3 domain (ELIPA, 30 mM NaCl), fold change relative to no SH3",[14],0.83 fold change
same,"dynamin GTPase activity stimulated by the GST-SH3 domain (ELIPA, 30 mM NaCl), fold change relative to no SH3",[15],2.82 fold change
same,"dynamin GTPase activity stimulated by the GST-SH3 domain (ELIPA, 30 mM NaCl), fold change relative to no SH3",GST-p85 SH3 domain [16],2.24 fold change
same,"dynamin GTPase activity stimulated by the GST-SH3 domain (ELIPA, 30 mM NaCl), fold change relative to no SH3",[17],5.12 fold change
same,"dynamin GTPase activity stimulated by the GST-SH3 domain (ELIPA, 30 mM NaCl), fold change relative to no SH3",[18],1.83 fold change
same,"dynamin GTPase activity stimulated by the GST-SH3 domain (ELIPA, 30 mM NaCl), fold change relative to no SH3",[19],5.9 fold change
same,"dynamin GTPase activity stimulated by the GST-SH3 domain (ELIPA, 30 mM NaCl), fold change relative to no SH3",[20],1.03 fold change
same,"dynamin GTPase activity stimulated by the GST-SH3 domain (ELIPA, 30 mM NaCl), fold change relative to no SH3",[21],2.1 fold change
same,"dynamin GTPase activity stimulated by the GST-SH3 domain (ELIPA, 30 mM NaCl), fold change relative to no SH3",[22],3.97 fold change
same,"dynamin GTPase activity stimulated by the GST-SH3 domain (ELIPA, 30 mM NaCl), fold change relative to no SH3",[23],1.09 fold change
same,"dynamin GTPase activity stimulated by the GST-SH3 domain (ELIPA, 30 mM NaCl), fold change relative to no SH3",GST-cortactin SH3 domain [24],5.49 fold change
same,"dynamin GTPase activity stimulated by the GST-SH3 domain (ELIPA, 30 mM NaCl), fold change relative to no SH3",[25],5.32 fold change
same,"dynamin GTPase activity stimulated by the GST-SH3 domain (ELIPA, 30 mM NaCl), fold change relative to no SH3",[26],14.7 fold change
